Test system: GzmB peptide substrate AIEFDSGc on PEG-coated iron oxide nanoparticles (GzmB-sensing synthetic biomarker)

Chain of Factor D (Sigma) (P00746 26-253): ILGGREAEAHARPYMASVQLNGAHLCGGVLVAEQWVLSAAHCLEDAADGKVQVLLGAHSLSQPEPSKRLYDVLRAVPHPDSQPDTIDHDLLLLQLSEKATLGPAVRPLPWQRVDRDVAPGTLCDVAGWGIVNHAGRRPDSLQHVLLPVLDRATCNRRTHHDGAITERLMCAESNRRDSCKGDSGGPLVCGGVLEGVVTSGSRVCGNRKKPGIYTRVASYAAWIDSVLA
Chain of Factor I (Sigma) (P05156 19-583): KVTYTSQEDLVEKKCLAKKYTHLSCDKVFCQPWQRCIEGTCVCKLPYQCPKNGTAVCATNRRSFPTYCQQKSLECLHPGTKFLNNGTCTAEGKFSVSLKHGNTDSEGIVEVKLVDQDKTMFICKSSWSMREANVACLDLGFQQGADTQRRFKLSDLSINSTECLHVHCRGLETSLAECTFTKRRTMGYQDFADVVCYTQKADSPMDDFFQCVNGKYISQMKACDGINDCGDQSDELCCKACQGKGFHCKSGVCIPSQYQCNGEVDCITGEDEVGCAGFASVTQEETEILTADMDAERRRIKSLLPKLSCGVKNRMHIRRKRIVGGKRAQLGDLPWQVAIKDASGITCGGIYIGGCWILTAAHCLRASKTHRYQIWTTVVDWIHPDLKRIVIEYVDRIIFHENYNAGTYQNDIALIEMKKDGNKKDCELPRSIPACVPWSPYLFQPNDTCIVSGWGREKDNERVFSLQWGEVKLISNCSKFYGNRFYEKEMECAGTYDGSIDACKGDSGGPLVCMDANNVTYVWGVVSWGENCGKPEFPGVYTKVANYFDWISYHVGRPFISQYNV
Chain of MASP2 (Biomatik) (O00187 16-686): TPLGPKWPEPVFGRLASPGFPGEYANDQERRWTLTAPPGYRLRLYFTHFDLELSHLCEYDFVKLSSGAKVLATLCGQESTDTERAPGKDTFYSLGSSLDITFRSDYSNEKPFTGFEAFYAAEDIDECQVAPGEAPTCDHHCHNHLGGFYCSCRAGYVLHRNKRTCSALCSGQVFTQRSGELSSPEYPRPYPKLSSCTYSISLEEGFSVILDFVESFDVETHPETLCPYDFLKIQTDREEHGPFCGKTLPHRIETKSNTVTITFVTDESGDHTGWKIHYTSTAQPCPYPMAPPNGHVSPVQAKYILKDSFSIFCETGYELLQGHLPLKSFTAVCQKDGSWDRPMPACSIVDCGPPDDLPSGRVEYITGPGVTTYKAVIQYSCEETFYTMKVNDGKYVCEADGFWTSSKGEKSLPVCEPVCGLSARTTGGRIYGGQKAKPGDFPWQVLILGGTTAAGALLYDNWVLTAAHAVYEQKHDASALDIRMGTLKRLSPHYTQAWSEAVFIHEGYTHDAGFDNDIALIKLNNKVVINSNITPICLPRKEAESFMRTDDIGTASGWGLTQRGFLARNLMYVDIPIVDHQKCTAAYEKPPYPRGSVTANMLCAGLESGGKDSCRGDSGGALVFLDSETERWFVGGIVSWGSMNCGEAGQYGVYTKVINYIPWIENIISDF

Substance	fluorescent intensity (in vitro protease cleavage assay)
Factor D (Sigma)	Increases in fluorescent intensity were observed only in samples containing recombinant GzmB
Factor I (Sigma)	Increases in fluorescent intensity were observed only in samples containing recombinant GzmB
MASP2 (Biomatik)	Increases in fluorescent intensity were observed only in samples containing recombinant GzmB
human thrombin (HaemTech)	Increases in fluorescent intensity were observed only in samples containing recombinant GzmB
mouse thrombin (HaemTech)	Increases in fluorescent intensity were observed only in samples containing recombinant GzmB

From US20190345534
